Two molecules from publication PMC2644375 can be followed below.

The target of test [1] is Nedd8 Cul1 (CFP)–Rbx1 (quantitatively neddylated) (UniProt Q13616). Briefly: FRET or BRET. In general terms: In BRET a luciferase serves as donor, and the signal depends on an acceptor being close.
The target in another test is Cul1 (CFP)–Rbx1 (human) (UniProt Q13616). Put plainly: FRET or BRET.
The target of test [2] is SCF^Skp2 (unmodified) (human), Q13616.

By Kd is commonly meant a measure of binding affinity in units of concentration. Read a low Kd as a tighter complex. In the case of “LG-labeled Cdc34 (from UniProt P49427 1-236) (enzyme)”, the fold lowering of Kd against unmodified Cul1 (CFP)–Rbx1 in test [1] is 3 fold. This molecule also had a dissociation constant Kd with Cul1 (CFP)–Rbx1 (human) of 82 nM.

B1: Cdc34, P49427 1-236 (enzyme)
chain: MARPLVPSSQKALLLELKGLQEEPVEGFRVTLVDEGDLYNWEVAIFGPPNTYYEGGYFKARLKFPIDYPYSPPAFRFLTKMWHPNIYETGDVCISILHPPVDDPQSGELPSERWNPTQNVRTILLSVISLLNEPNTFSPANVDASVMYRKWKESKGKDREYTDIIRKQVLGTKVDAERDGVKVPTTLAEYCVKTKAPAPDEGSDLFYDDYYEDGEVEEEADSCFGDDEDDSGTEES
In the case of B1, the Km for Cdc34 in ubiquitination of p27-Cdk2-CycE (multi-turnover, varying Cdc34) in test [2] came out at 6.1 µM.
